Assays:
[1] = target: Protein A (UniProt P38507); experiment: electrochemical impedance spectroscopy (EIS); Protein A (0.25 mg/mL, 90 min) adsorbed to the gold surface of a Topas chip, blocked with 1 mg/mL BSA; 500 uL of 0.565 mg/mL IgG1 added for 90 min, rinsed with 10 mM Tris-HCl; impedance at 251 Hz, AC amplitude 10 mV; measured together with SPR in one PDMS flow cell
[2] = target: Protein A (UniProt P38507); experiment: SPR; Protein A (0.25 mg/mL, 90 min) adsorbed to the gold surface of a Topas chip, blocked with 1 mg/mL BSA; 500 uL of 0.565 mg/mL IgG1 added for 90 min, rinsed with 10 mM Tris-HCl; plateaus in 10 mM Tris-HCl compared; measured together with EIS in one PDMS flow cell

**Q.** What does the source list for immunoglobulin-G (IgG1) (antibody)?
**A.** impedance at 251 Hz after IgG1 and the last rinse [1]: 51 kΩ; increase in impedance, normalised to the initial value [1]: 18.6%; local minimum (RU) after IgG1 and the last rinse [2]: 460 RU; minimum shift, normalised to the initial value [2]: 35.3%

Source: paper PMC3871058
